Measurements: patent US10919943B2, “Mutant proteins enabling agrochemical control of plant gene expression” (The Regents of the University of California, priority 2016, dated 2021)
Marks after values point to notes of the source that are not given here.

T1: PYR1*^-MANDI (Arabidopsis thaliana, UniProt O49686, A160V/F108A/F159V/K59R/M158I/S122G/T162D/V81I/Y58H)
T1 construct: expressed in transfected cells; host or cells: S. cerevisiae strain MAV99 (selection)
T1 sequence (O49686 1-191 Y58H/K59R/V81I/F108A/S122G/M158I/F159V/A160V/T162D): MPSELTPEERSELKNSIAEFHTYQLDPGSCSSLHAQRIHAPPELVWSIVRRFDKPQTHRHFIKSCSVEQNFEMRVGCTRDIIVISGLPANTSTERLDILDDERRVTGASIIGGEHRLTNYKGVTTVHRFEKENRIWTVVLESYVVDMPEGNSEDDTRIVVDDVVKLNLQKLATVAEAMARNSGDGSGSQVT

T2: PYR1 (Arabidopsis thaliana, UniProt O49686)
T2 construct: expressed in transfected cells; host or cells: S. cerevisiae strain Y190
T2 sequence (O49686 1-191): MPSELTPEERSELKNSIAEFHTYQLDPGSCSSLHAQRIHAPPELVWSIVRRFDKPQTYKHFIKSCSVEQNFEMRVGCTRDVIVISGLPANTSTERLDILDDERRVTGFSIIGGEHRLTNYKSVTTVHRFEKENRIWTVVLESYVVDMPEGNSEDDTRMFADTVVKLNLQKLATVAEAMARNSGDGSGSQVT


Key:
Assay type in all cases: cell-based
PYR1*^-MANDI = target: T1, PYR1*^-MANDI; experiment: Yeast two hybrid, mandipropamid-induced interaction of HAB1 variants with pBD-PYR1*^-MANDI; details: selection on 500 nM mandipropamid
Source text: To investigate the effects of overexpressing HAB1^!-2 in Arabidopsis, we used Agrobacterium mediated transformation to generate 35S::GFP-HAB1^!-2 transgenic plants. HAB1^!-2 was cloned from pACT-HAB1^!-2 into pEGAD, a binary vector suitable for plant transformation, generating a 35S-driven GFP-HAB1^!-2 fusion protein. The clone was transformed into Agrobacterium and the floral dip method used to transform Arabidopsis. After selection of T0 seed on soil containing glufosinate, several T1 seedlings were identified. […] As an alternate strategy, we eliminated HAB1's catalytic activity by introducing a mutation in a conserved metal-ion binding residue (D204), which is homologous to D131A mutation in ABI1, previously shown to eliminate phosphatase activity without disrupting wild type receptor-ABI1 interactions (Liang et al., 2011). We used QuickChange mutagenesis to introduce the D204A mutation into pACT-HAB1^!-2, generating pACT-HAB1^!-3. When tested for mandipropamid induced interactions with pBD-PYR1*^-MANDI, HAB1^!-3 is ˜10-fold less sensitive to mandipropamid relative to HAB1^!-2 (FIG. 5).
D204 is located within HAB1's catalytic active site and binds to one of 3 catalytic Mg^++ ions that participate in catalysis. […] It is likely that disruptions to active site structure introduced by D204A destabilize the PYR1*^-MANDI/HAB1^!-3 interaction relative to HAB1^!-2. We reasoned that suppressor mutations in other HAB1 interface or active site residues could restore sensitivity by strengthening interactions with PYR1*^-MANDI. To identify such suppressors, we mutagenized the pACT-HAB1^!-3 template using NNK mutagenesis in 28 residues located with at the PYR1 binding interface. The residues targeted were: R199, S200, E201, E203, D243, G244, H245, G246, G247, S322, E323, T324, D346, K365, K381, 1383, Q384, W385, Q386, R389, F391, G392, Y404, S431, G433, D436, D492 and N394. The pACT-HAB1^!-3 template was mutagenized in 28 separate NNK mutagenesis reactions using the QuickChange protocol. Mini-libraries, each containing ˜1000 clones, were made for each NNK reaction and plasmid DNA for the 28 mutations prepared, pooled, and then transformed into S. cerevisiae strain MAV99 co-transformed with pBD-PYR1*^-MANDI, and then plated onto selective SD(-Leu,-Trp,-Ura) agar media supplemented with 500 nM mandipropamid. […] S322D and R199A were combined using the Lightning Multi-site Mutagenesis™ (Agilent, USA) method, and the resultant pentuple mutant tested in combination with pBD-PYR1*^-MANDI for sensitivity to mandipropamid using β-galactosidase assays.

PYR1 = target: T2, PYR1; experiment: Yeast two hybrid of pACT-HAB1 site saturation mutants with pBD-PYR1 on 10 μM ABA, β-galactosidase staining; design: key: x: Mutations in HAB1 that disrupt HAB1 interaction with PYR1; details: S. cerevisiae Y190, 10 μM ABA; dead = lack of detectable staining in comparison to wild type control
Procedure, shortened: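 HAB1 (lacking three N-terminal residues) site-saturation mutants in pACT were co-transformed with pBD-PYR1 into S. cerevisiae Y190 and spotted on SD (-Leu,-Trp) with 10 μM ABA. After 2 days at 30 °C, chloroform-lysed colonies were stained for β-galactosidase; "dead" means no detectable staining versus wild-type pair.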

HAB1^!-2 = experiment: Yeast two hybrid, mandipropamid-promoted interaction of PYR1 variants with HAB1^!-2; details: for mandipropamid concentration to which the interaction responds: FIG. 3, FIG. 4; for relative mandipropamid sensitivity among selected mutants: β-galactosidase assays on different mandipropamid concentrations
Source text: To engineer orthogonal mandipropamid responsiveness, we introduced the PYR1^! mutation into the PYR1^MANDI receptor to create a septuple mutant called PYR1^!-MANDI (PYR1^Y58H;K59R;V81I;F108A;S122G;F159L;T162D). This mutant interacts with HAB1^! and HAB^!-2 in response to low μM mandipropamid in yeast two-hybrid assays, but is ˜100-fold less sensitive than the PYR1^MANDI/HAB1 interaction, which responds to concentrations in the low nM range (FIG. 3).
To improve sensitivity, we mutagenized ligand contacting and interface residues in PYR1^!-MANDI using NNK primers, pooled the mutant libraries, and used the mutagenized receptors in selection experiments using to identify enhancer mutations. The NNK mutagenesis screen targeted the following residues: P55, H60, F61, I62, K63, V83, S85, G86, L87, P88, A89, S92, E94, I110, H115, R116, L117, Y120, E141, P148, G150, N151, D154, D155, T156, M158, A160, V163, V164, L166, N167, and K170. […] Since M158 and A160 flank the […] mutation present in PYR1^MANDI, we inferred that the closely located orthogonalizing T162D mutation in PYR1^!-MANDI may have reduced mandipropamid sensitivity by altering the local structure of the C-terminal α3-helix, which participates in ligand-induced conformational changes needed for PP2C binding (Nishimura et al., 2009). We therefore simultaneously mutagenized positions M158, F159 and A160 using a primer with degenerate NNK codons at all three positions. F159 was included in this mutagenesis because we have previously observed that multiple substitutions at F159 (A,C,I,L,M,T, or V) are permissive for mandipropamid responsiveness (S. Y. Park et al., n.d.), and sought to test whether residues other than leucine at position 159 might function better in the context of simultaneous changes to both A160 and M158. The mutagenic primer was used in QuickChange mutagenesis reactions using pBD-PYR1^!-MANDI template, and a library of ˜12,000 clones was generated. Plasmid DNA for the library was prepared from pooled E. coli transformants, and subsequently transformed into S. cerevisiae strain MAV99 harboring pACT-HAB1^!-2. ˜20,000 yeast transformants were generated, pooled, and plated onto SD(-Leu,-Trp) agar media supplemented with 0.1% fluorotic acid (to select against mutants that interact in a ligand-independent fashion). The surviving cells were collected and plated onto SD(Leu,-Trp,-Ura) plates supplemented with 50 nM mandipropamid. The colonies displaying the best uracil-independent growth were isolated and retested on different mandipropamid concentrations and then stained in β-galactosidase assays to rank their relative strength.

| Molecule | Mutations in HAB1 that disrupt HAB1 interaction with PYR1 (PYR1) | mandipropamid concentration to which the interaction responds (HAB1^!-2) | relative mandipropamid sensitivity among selected mutants (HAB1^!-2) | further results |
| --- | --- | --- | --- | --- |
| S322D (protein, listed as Arabidopsis thaliana) MEEMTPAVAMTLSLAANTMCESSPVEITQLKNVTDAADLLSDSENQSFCNGGTECTMEDVSELEEVGEQDLLKTLSDTRSGSSNVFDEDDVLSVVEDNSAVISEGLLVVDAGSELSLSNTAMEIDNGRVLATAIIVGESSIEQVPTAEVLIAGVNQDTNTSEVVIRLPDENSNHLVKGRSVYELDCIPLWGTVSIQGNRSEMEDAFAVSPHFLKLPIKMLMGDHEGMSPSLTHLTGHFFGVYDGHGGHKVADYCRDRLHFALAEEIERIKDELCKRNTGEGRQVQWDKVFTSCFLTVDGEIEGKIGRAVVGSSDKVLEAVADETVGSTAVVALVCSSHIVVSNCGDSRAVLFRGKEAMPLSVDHKPDREDEYARIENAGGKVIQWQGARVFGVLAMSRSIGDRYLKPYVIPEPEVTFMPRSREDECLILASDGLWDVMNNQEVCEIARRRILMWHKKNGAPPLAERGKGIDPACQAAADYLSMLALQKGSKDNISIIVIDLKAQRKFKTRT |  |  |  | effect of mutation on mandipropamid responsiveness of HAB1^!-3 (PYR1*^-MANDI): enhance responsiveness of HAB1^!-3 |
| G247F: HAB1 mutant (protein, UniProt Q9CAJ0 23-511, looked up, variant G247F) Protein phosphatase 2C 16: SPVEITQLKNVTDAADLLSDSENQSFCNGGTECTMEDVSELEEVGEQDLLKTLSDTRSGSSNVFDEDDVLSVVEDNSAVISEGLLVVDAGSELSLSNTAMEIDNGRVLATAIIVGESSIEQVPTAEVLIAGVNQDTNTSEVVIRLPDENSNHLVKGRSVYELDCIPLWGTVSIQGNRSEMEDAFAVSPHFLKLPIKMLMGDHEGMSPSLTHLTGHFFGVYDGHGFHKVADYCRDRLHFALAEEIERIKDELCKRNTGEGRQVQWDKVFTSCFLTVDGEIEGKIGRAVVGSSDKVLEAVASETVGSTAVVALVCSSHIVVSNCGDSRAVLFRGKEAMPLSVDHKPDREDEYARIENAGGKVIQWQGARVFGVLAMSRSIGDRYLKPYVIPEPEVTFMPRSREDECLILASDGLWDVMNNQEVCEIARRRILMWHKKNGAPPLAERGKGIDPACQAAADYLSMLALQKGSKDNISIIVIDLKAQRKFKTRT | x |  |  |  |
| G247I: HAB1 mutant (protein, UniProt Q9CAJ0 23-511, looked up, variant G247I) Protein phosphatase 2C 16: SPVEITQLKNVTDAADLLSDSENQSFCNGGTECTMEDVSELEEVGEQDLLKTLSDTRSGSSNVFDEDDVLSVVEDNSAVISEGLLVVDAGSELSLSNTAMEIDNGRVLATAIIVGESSIEQVPTAEVLIAGVNQDTNTSEVVIRLPDENSNHLVKGRSVYELDCIPLWGTVSIQGNRSEMEDAFAVSPHFLKLPIKMLMGDHEGMSPSLTHLTGHFFGVYDGHGIHKVADYCRDRLHFALAEEIERIKDELCKRNTGEGRQVQWDKVFTSCFLTVDGEIEGKIGRAVVGSSDKVLEAVASETVGSTAVVALVCSSHIVVSNCGDSRAVLFRGKEAMPLSVDHKPDREDEYARIENAGGKVIQWQGARVFGVLAMSRSIGDRYLKPYVIPEPEVTFMPRSREDECLILASDGLWDVMNNQEVCEIARRRILMWHKKNGAPPLAERGKGIDPACQAAADYLSMLALQKGSKDNISIIVIDLKAQRKFKTRT | x |  |  |  |
| G247K: HAB1 mutant (protein, UniProt Q9CAJ0 23-511, looked up, variant G247K) Protein phosphatase 2C 16: SPVEITQLKNVTDAADLLSDSENQSFCNGGTECTMEDVSELEEVGEQDLLKTLSDTRSGSSNVFDEDDVLSVVEDNSAVISEGLLVVDAGSELSLSNTAMEIDNGRVLATAIIVGESSIEQVPTAEVLIAGVNQDTNTSEVVIRLPDENSNHLVKGRSVYELDCIPLWGTVSIQGNRSEMEDAFAVSPHFLKLPIKMLMGDHEGMSPSLTHLTGHFFGVYDGHGKHKVADYCRDRLHFALAEEIERIKDELCKRNTGEGRQVQWDKVFTSCFLTVDGEIEGKIGRAVVGSSDKVLEAVASETVGSTAVVALVCSSHIVVSNCGDSRAVLFRGKEAMPLSVDHKPDREDEYARIENAGGKVIQWQGARVFGVLAMSRSIGDRYLKPYVIPEPEVTFMPRSREDECLILASDGLWDVMNNQEVCEIARRRILMWHKKNGAPPLAERGKGIDPACQAAADYLSMLALQKGSKDNISIIVIDLKAQRKFKTRT | x |  |  |  |
| PYR1^Y58H;K59R;V81I;F108A;S122G;M158V;F159V;A160V;T162D: PYR1 mutant with 9 mutations (protein, listed as Arabidopsis thaliana) MPSELTPEERSELKNSIAEFHTYQLDPGSCSSLHAQRIHAPPELVWSIVRRFDKPQTHRHFIKSCSVEQNFEMRVGCTRDIIVISGLPANTSTERLDILDDERRVTGASIIGGEHRLTNYKGVTTVHRFEKENRIWTVVLESYVVDMPEGNSEDDTRVVVDDVVKLNLQKLATVAEAMARNSGDGSGSQVT |  | nM responses | slightly less sensitive than PYR1*^-MANDI |  |
| PYR1^Y58H;K59R;V81I;F108A;S122G;M158I;F159V;A160C;T162D: PYR1 mutant with 9 mutations (protein, listed as Arabidopsis thaliana) MPSELTPEERSELKNSIAEFHTYQLDPGSCSSLHAQRIHAPPELVWSIVRRFDKPQTHRHFIKSCSVEQNFEMRVGCTRDIIVISGLPANTSTERLDILDDERRVTGASIIGGEHRLTNYKGVTTVHRFEKENRIWTVVLESYVVDMPEGNSEDDTRIVCDDVVKLNLQKLATVAEAMARNSGDGSGSQVT |  | nM responses | slightly less sensitive than PYR1*^-MANDI |  |
